According to US11419948B2, “Functionalized microgels with fibrin binding elements” (Georgia Tech Research Corporation, priority 2013, dated 2022):

T1: fibrin clots (Homo sapiens, UniProt P02671+P02675+P02679)
T1 sequence (P02671 36-866 limits assumed): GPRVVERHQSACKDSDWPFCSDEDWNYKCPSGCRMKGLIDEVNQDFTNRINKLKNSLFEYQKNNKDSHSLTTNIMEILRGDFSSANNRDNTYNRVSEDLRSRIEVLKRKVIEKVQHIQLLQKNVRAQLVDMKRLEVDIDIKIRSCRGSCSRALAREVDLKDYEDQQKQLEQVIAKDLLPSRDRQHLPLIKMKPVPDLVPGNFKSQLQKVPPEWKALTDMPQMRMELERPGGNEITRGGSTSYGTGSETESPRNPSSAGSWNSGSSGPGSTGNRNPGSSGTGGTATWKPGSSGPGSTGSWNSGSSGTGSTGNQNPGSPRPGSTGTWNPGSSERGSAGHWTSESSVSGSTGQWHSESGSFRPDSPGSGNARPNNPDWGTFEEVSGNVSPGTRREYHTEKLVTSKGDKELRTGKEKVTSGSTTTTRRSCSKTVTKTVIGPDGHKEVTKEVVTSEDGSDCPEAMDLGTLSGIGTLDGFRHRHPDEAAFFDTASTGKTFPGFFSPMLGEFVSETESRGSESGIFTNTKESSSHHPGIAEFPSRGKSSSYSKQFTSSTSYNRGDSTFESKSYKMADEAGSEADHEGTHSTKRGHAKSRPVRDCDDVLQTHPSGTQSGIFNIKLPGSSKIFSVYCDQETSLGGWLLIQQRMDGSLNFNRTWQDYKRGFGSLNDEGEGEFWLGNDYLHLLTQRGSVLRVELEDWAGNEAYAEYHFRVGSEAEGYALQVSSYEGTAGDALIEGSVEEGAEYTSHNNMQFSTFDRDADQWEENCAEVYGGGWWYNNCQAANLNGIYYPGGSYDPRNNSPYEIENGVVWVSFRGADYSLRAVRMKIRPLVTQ
T1 sequence (P02675 45-491 limits assumed): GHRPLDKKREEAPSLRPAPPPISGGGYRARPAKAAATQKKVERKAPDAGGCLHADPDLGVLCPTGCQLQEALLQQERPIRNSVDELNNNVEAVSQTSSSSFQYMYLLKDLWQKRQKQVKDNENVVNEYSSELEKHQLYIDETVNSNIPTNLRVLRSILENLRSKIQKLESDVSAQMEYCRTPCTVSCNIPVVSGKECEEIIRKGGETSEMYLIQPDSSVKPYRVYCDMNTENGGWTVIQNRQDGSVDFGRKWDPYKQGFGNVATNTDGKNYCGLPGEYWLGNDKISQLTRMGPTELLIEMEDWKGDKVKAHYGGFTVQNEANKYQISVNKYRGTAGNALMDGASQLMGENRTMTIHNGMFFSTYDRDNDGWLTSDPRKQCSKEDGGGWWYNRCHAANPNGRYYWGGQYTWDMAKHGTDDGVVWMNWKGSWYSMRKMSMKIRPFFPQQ
T1 sequence (P02679 27-453): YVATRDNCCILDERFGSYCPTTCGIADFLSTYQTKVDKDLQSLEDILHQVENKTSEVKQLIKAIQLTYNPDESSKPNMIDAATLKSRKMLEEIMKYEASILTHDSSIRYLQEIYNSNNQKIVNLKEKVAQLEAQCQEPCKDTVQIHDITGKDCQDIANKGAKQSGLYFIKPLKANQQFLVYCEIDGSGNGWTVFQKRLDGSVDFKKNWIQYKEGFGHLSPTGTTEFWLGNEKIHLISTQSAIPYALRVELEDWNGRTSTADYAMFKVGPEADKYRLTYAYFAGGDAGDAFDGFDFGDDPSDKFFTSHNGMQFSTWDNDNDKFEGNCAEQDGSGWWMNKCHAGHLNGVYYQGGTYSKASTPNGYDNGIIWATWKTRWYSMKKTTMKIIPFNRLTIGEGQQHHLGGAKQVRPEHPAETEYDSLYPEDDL

B1: PLPs: ultra-low crosslinked pNIPAm-AAc microgels conjugated to fibrin-specific sdFv H6 (conjugate)
VH: QVQLLESGGGLVQPGGSLRLSCAASGDRFTHNDMGWVRQAPGKGLEWVSTIPTTDGSTYYADSVKGRFTISRDNSKSTLYLQMNSLRAEDTAVYYCATGYMWKAPAYVKYWGQGTLVTVSSAAAEQKLISEEDLNSAAHYTDIG
B2: H6: fibrin-specific human sdFv clone from phage biopanning, SEQ ID NO: 1 (protein)
VHH: B1 VH

Assays:
platelet-poor plasma = assay: Gross clot contraction of platelet-poor plasma clots; format: biochemical
Text: Clot collapse was characterized at the macroscopic level by performing standard gross clot contraction experiments routinely utilized by platelet biologists, Thomas, et al., BMC Cell Biology, 8:46 (2007); Suzuki-Inoue, et al., Thrombosis Research, 120:251-258 (2007). It was expected that particle deformability would play a large role in the ability of fibrin-binding microgels to induce gross clot deformation and architectural changes. Clots were created through the addition of 1 U/mL thrombin (final concentration) to platelet-poor plasma containing microgels of varying crosslinking. Clot collapse was observed within 48 hours in the presence of PLPs but not under any other conditions tested (FIG. 4B). […] Because natural platelet mediated contraction decreases clot degradation rates, we analyzed clot degradation rates in the absence or presence of PLPs. […] Because clot contraction was not observed in the presence of non-fibrin binding ULC microgels or in the presence of fibrin-binding BIS crosslinked microgels or hard PS particles, we conclude that, while enhancement of clotting in vitro only requires high affinity and multivalency for fibrin, particle deformability is critical to the ability of fibrin-binding particles to induce clot collapse. To fully recapitulate the hemostatic functions of platelets (enhancement of dotting and clot contraction following hemostasis) it appears that both high fibrin affinity and high particle deformability are required.

fibrin clots = target: T1, fibrin clots; assay: Clot microstructure by confocal microscopy; format: biochemical; parameters: from tissue; host or cells: blood plasma (platelet-rich or platelet-poor); conditions: clots formed in presence of particles, compared to control (fibrin-only) clots
Text: FIGS. 4A and 4B are maximum-intensity confocal images of fibrin clots formed from platelet-rich plasma (PRP) or platelet-poor plasma (PPP) in the absence or presence of PLPs or S11-ULCs. Fibrin, grey; microgels/platelets, circled.
To allow appreciation of the network structure in the presence of saturation, 0.33× exposures and equivalent exposures are shown on the left- and right-hand sides, respectively, of the images for PRP and PLP clots. […] FIG. 4E is a graph showing the calculated spread area of PLPs, natural platelets, S11-ULCs and H6-PS particles within fibrin matrices. (**p<0.01, ***p<0.001).
To further characterize the nature of PLP-fibrin interactions, clot microstructure was analyzed via confocal microscopy by forming clots in the presence or absence of scFv-ULC microgels. […] These clots were highly heterogeneous, containing regions of dense fibrin observed in conjugation with PLPs (FIG. 4A) with the dense features becoming more pronounced over time. These features were very similar to those observed from clots formed in platelet-rich plasma, although occurring on a different time scale.

fibrin E Regions = assay: ELISA against adsorbed fibrin E Regions; format: binding; conditions: E Region dilutions
Experimental: This was determined through ELISAs against plates coated with adsorbed fibrin D-Dimers or E Regions.
ELISA set-up and analysis was identical to that performed for the plasma-binding ELISA, the main exception being a substitution of human plasma dilutions for D-Dimer or E Region dilutions adsorbed to the 96-well plates. Both D-Dimer and […]

Molecule | overall degree of clot contraction (platelet-poor plasma; platelet-poor plasma with particles versus native platelet-rich plasma) | time to clot collapse (platelet-poor plasma; platelet-poor plasma, 1 U/mL thrombin) | rate of induced clot collapse (platelet-poor plasma; versus native platelet-containing clots) | clot structure (fibrin clots) | binding to E Region (fibrin E Regions)
B1 | No significant differences | ≤ 48 h | significantly less | significantly altered clot structure | 
B2 |  |  |  |  | negligible binding
